Values quoted from earlier work, collected in PMC4615603.

Molecular target: Nef (Human immunodeficiency virus 1) (UniProt P04324)

## Hck SH3 (from UniProt P08631)
  Kd: 120 nM
